Substrate: O=[N+]([O-])c1ccccc1O[C@@H]1O[C@H](CO)[C@H](O)[C@H](O)[C@H]1O
Assay: purified protein
Format: biochemical, Kosakonia oryzendophytica
Conditions: pH 7.0, 100 mM HEPES, 50 °C, 5 min, ONPG 0.3-50 mM, fit called substrate inhibition curve (Figure S4)

B1: Koor β-gal (Kosakonia oryzendophytica) (protein)
chain: MSASALRTLISRRDWENPVITHWHRLPAHAPMRSWRDEQAARDNAPSSAHRLLNGEWYFRFFPAPEAVPERWITEEYDDAVAMPVPSNWQMQGFDTPIYTNVTYPIPVNPPFVPQQNPTGCYSLTFEMTAQALAQGQTRIVFDGVNSAFYLWCNGQWIGYSQDSRLPAEFDLSDVLHVGQNRLAVMVLRWCDGSYLEDQDMWRMSGIFRDVSLQHKPATHIADFHHTTELNAEFTHGQVKVDLRLAGEYSACQVAVALWHGEEKIAQAQQAPGSAIVDERGAWAERLSVSLPVSDPLLWSAETPHLYRLTLTLLDGLGNVLEVEACNVGFRKVEISNGLLKLNGKPLLIRGVNRHEHHPENGQAIDEATMRRDIELMKQHNFNAVRCSHYPNHPLWYSLCDEYGLYVVDEANIETHGMTPMSRLSDDPQWLPAMSERVTRMVLRDRNHPSIIIWSLGNESGHGASHDALYRWLKTTDPTRPVQYEGGGANTAATDIICPMYARVDEDQPFPAVPKWSIKKWIGLPDETRPLILCEYAHAMGNSFGGFAKYWQAFRETPRLQGGFVWDWVDQALTKTDTNGQSFWAYGGDFGDTPNDRQFCMNGLVFPDRTPHPALYEAQRAQQFFQFRLLNTTPLVIEVESEYLFRTTDNEYLRWAVVRDGLVLAQGEITLAIAPQGKQQIALTIPELESAPGEVWLNVDVYQKAATPWSDAEHHCAWDQWRLPSPLFIAPRKTVSSRPMLVVSEEEYVIHHRNQRWQFCRRSGDLIQWWRDEQPTLLTPLRDSFARAPLDNDIGISEVTRIDPNAWVERWKAAGMYDLRAELLACEVEEHAADIVVTTTHCWSGAGKTGFVSHKRWRIDGEGVLHGEVDVQVATDIPPPARIGLVCQLSEVQASVSWLGLGPHENYPDRKLAARQGRWTLPLAALHTPYIFPGENGLRCETRELHYGAHHLNGDFHFSLGRYSDKQLRETTHHHLLREEAGCWLHLDAFHMGVGGDDSWSPSVSPEFILRSERVRYAFCWRQD
notes: C-terminal 6xHis tag, pET-28a(+) NcoI/XhoI, E. coli BL21(DE3), Ni-NTA; synthetic gene
Question: For B1, which Km is on record?
Answer: The Km was 6.0 ± 0.3 mM.

Question: And the kcat?
Answer: Its kcat is 732.7 ± 43.5 s⁻¹.
